Measured values taken from US20260055200A1, “COMBINATION THERAPIES” (Alligator Bioscience AB, priority 2022, published 2026).
Entries after “also recorded” stand apart in the source; their conditions may differ.

Tests used:
[1] = tested on: metastatic pancreatic ductal adenocarcinoma; assay: OPTIMIZE-1 anti-tumour activity per RECIST v. 1.1 (ORR, BOR, DCR, DoR, time to progression, PFS, OS); assay type: in vivo, human
Procedure: The interim analysis was based on objective response rate (ORR) observed for all patients dosed at the mitazalimab RP2D. The interim analysis included efficacy data up to 17 weeks of study treatment (8 cycles for mFOLFIRINOX and 4 cycles for gemcitabine plus nab-paclitaxel).
A CT scan is performed at screening (within 28 days of first dose), 9 weeks after start of study treatment (end of cycle 4 for mFOLFIRINOX combination and at end of Cycle 2 for gemcitabine plus nab-paclitaxel treatment) and thereafter at every 8th week assuming no treatment delays. Additional CT scans may be performed at the discretion of the Investigator at unscheduled visits. The CT scans were evaluated according to RECIST v. […] Patients with response (PR or CR) can have a confirmatory CT scan at least 4 weeks later to confirm the response.
The evaluation of tumour response was done according to RECIST v. 1.1 by the investigational sites using CT scans according to Example 3 RECIST v. […] Patients with PD can discontinue study treatment. However, patients with suspected progression are allowed to continue on treatment if they are considered to be clinically stable in the opinion of the Investigator until clinical or radiological progression is documented.
For the interim analysis, the ORR was based on the response evaluation after 8 cycles for mitazalimab in combination with mFOLFIRINOX or 4 cycles for mitazalimab in combination with gemcitabine plus nab-paclitaxel (i.e., approximately 4 months after first dose). […] In addition, ORR was presented for each study visit. Patients not evaluable for ORR and who completed at least 2 cycles were considered as non-responders.
All secondary efficacy endpoint were presented using descriptive statistics. Best Overall Response (BOR) for each patient will be defined as the best response from RECIST v. 1.1 categories CR, PR, SD and PD at any time during the study. Disease control rate will be defined as either CR, PR or SD at each visit as determined by RECIST v. […] The duration of response (DoR) was defined as number of days from initial response of CR or PR to progressive disease or death due to underlying disease, whichever came first. Duration of Stable Disease (SD) was defined as number of days from first dose of mitazalimab to progressive disease or death, whichever came first. Time to next anti-cancer therapy was defined as number of days from the time from first dose of mitazalimab to next treatment initiated.

[2] = tested on: whole blood transcriptome; assay: RNA-sequencing of peripheral whole blood of MB49 tumour-bearing hCD40tg mice; assay type: in vivo, mouse; conditions: for Differentially expressed genes, p. adj < 0.05 / Differentially expressed genes, p. adj < 0.05 & FC > 2: of 14485 total genes
Source text: Peripheral blood was collected from the mice at the end of the first cycle and subjected to RNA-sequencing to identify pharmacodynamic biomarkers. RNA was extracted from whole blood after red blood cell lysis using GLOBINclear™ Kit, mouse/rat (AM1981, Invitrogen), and Mouse RiboPure™-Blood RNA Isolation Kit (AM1951, Invitrogen) according to the manufacturer's instruction. Purified RNA was stored in RNase-free microfuge tubes (AM12425, Invitrogen), and frozen at −80 C until further use.
RNA library preparation and sequencing was performed by the Center for Translational Genomics (CTG, Lund University). RNA integrity was analyzed with the TapeStation 4200 (Agilent Technologies), using Agilent RNA ScreenTape and reagents (5067-5576, 5067-5577, Agilent Technologies). RNA concentration was analyzed with the Qubit Flex (Q33327 Invitrogen Thermo Fisher Scientific), using the QuantIT RNA HS Assay Kit (Q33140, Life Technologies). cDNA sequencing libraries were prepared using TruSeq® Stranded mRNA Library Prep kit (20020594, Illumina). The libraries were sequenced in a NovaSeq 6000 System (20012850, Illumina), using the NovaSeq 6000 SP Reagent Kit, 300 cycles v1.5 20028400). The reads were aligned to the mouse reference genome GRCm38 (mm10) using the STAR software (v 2.5.0a.13).
R (v4.0.3) and R studio (v1.4.1103) were used to perform quality control and thresholding, normalization, dimensionality reduction, and visualization as well as differential gene expression analysis. Protein coding genes with a minimum of 5 reads in 3 or more samples were kept for analysis. For data visualization, filtered raw counts were normalized using the variance-stabilizing-transformation method in the DESeq2 package (version 1.38.3).
Principal component analysis (PCA) was used to visualize the data, and assess the effects of the treatment at transcriptomic level.
To identify differentially expressed genes among treatment groups, filtered raw counts were normalized using the median of ratios method in the DESeq2 package. Treatment groups were compared using the negative binomial Wald's test (adjusted-p.value [adj-p.val]<0.05, fold change>2).
Pathway enrichment analysis was performed using EnrichR (v3.0) by querying differentially expressed genes among treatment groups onto the gene ontology database (GO, GO_bioprocess_2018). Re-occurring and highly ranked pathways (adj.p-value<0.05) were selected and harmonized throughout the samples using gene set variation transformation (GSVA). The resulting GSVA scores were plotted as a spider plot for pathway activity comparison among the groups.

[3] = 450 μg/kg mitazalimab, N = 5, Table 42
[4] = 450 μg/kg mitazalimab, N = 5, safety set, Table 25
[5] = 900 μg/kg mitazalimab + mFOLFIRINOX, FAS N = 23, futility analysis, responses need not be confirmed
[6] = 900 μg/kg mitazalimab + mFOLFIRINOX, FAS N = 57
[7] = 900 μg/kg mitazalimab + mFOLFIRINOX, FAS N = 57, including unconfirmed responses
[8] = 900 μg/kg mitazalimab + mFOLFIRINOX, FAS N = 57, 95% CI (5.8-9.4)
[9] = 900 μg/kg mitazalimab + mFOLFIRINOX, FAS N = 57, first block of Table 49
[10] = 900 μg/kg mitazalimab + mFOLFIRINOX, FAS N = 57, second block of Table 49
[11] = 900 μg/kg mitazalimab + mFOLFIRINOX, FAS, n = 18
[12] = 900 μg/kg mitazalimab, N = 23, FAS, data cut-off 2022 Dec. 8
[13] = 900 μg/kg mitazalimab, N = 38, safety set, Table 25
[14] = 900 μg/kg mitazalimab, N = 65, Table 42
[15] = Overall, N = 43, safety set, Table 25
[16] = futility analysis (FAS), 900 μg/kg mitazalimab and mFOLFIRINOX, 23 patients
[17] = individual patients, End of Treatment visit, 900 μg/kg mitazalimab + mFOLFIRINOX, futility analysis
[18] = individual patients, Unscheduled visit, 900 μg/kg mitazalimab + mFOLFIRINOX, futility analysis
[19] = individual patients, visit Cycle 4, 900 μg/kg mitazalimab + mFOLFIRINOX, futility analysis
[20] = individual patients, visit Cycle 8, 900 μg/kg mitazalimab + mFOLFIRINOX, futility analysis

B1: Mitazalimab: agonistic, human monoclonal (IgG1) antibody targeting CD40 (antibody, chains of the INN, looked up, V domains shown)
VH: EVQLLESGGGLVQPGGSLRLSCAASGFTFSTYGMHWVRQAPGKGLEWLSYISGGSSYIFYADSVRGRFTISRDNSENALYLQMNSLRAEDTAVYYCARILRGGSGMDLWGQGTLVTVSS
VL: QSVLTQPPSASGTPGQRVTISCTGSSSNIGAGYNVYWYQQLPGTAPKLLIYGNINRPSGVPDRFSGSKSGTSASLAISGLRSEDEADYYCAAWDKSISGLVFGGGTKLTVL
[1]; [3]
  Discontinued study: Death due to disease progression, number of patients: 4
  Discontinued study: Death due to disease progression, percentage relative to number discontinued: 80.0%
  Discontinued treatment: Death, number of patients: 0
  Discontinued treatment: Death, percentage relative to number discontinued: 0.0%
  Discontinued treatment: No longer clinically benefiting, number of patients: 0
  Discontinued treatment: No longer clinically benefiting, percentage relative to number discontinued: 0.0%
  Discontinued treatment: Progressive disease, number of patients: 4
  Discontinued treatment: Progressive disease, percentage relative to number discontinued: 80.0%
[1]; [4]
  Discontinued study: Death due to disease progression, number of patients: 2
  Discontinued study: Death due to disease progression, percentage of patients: (40.0) %
  Discontinued treatment: Clear clinical deterioration, number of patients: 0
  Discontinued treatment: Clear clinical deterioration, percentage of patients: (0.0) %
  Discontinued treatment: Death due to disease progression, number of patients: 2
  Discontinued treatment: Death due to disease progression, percentage of patients: (40.0) %
  Discontinued treatment: Progressive disease, number of patients: 2
  Discontinued treatment: Progressive disease, percentage of patients: (40.0) %
[1]; 900 μg/kg Mitazalimab (N = 57) with mFOLFIRINOX, CR, PR or SD as best overall response, RECIST 1.1
  Disease control rate (FAS): 44 (77.2)
[1]; 900 μg/kg mitazalimab + mFOLFIRINOX, FAS N = 23, futility analysis
  Disease control rate (CR, PR or SD), %: (91.3) %
[1]; [5]
  Best Overall Response: Partial response, %: (52.2) %
  Best Overall Response: Progressive disease, %: (8.7) %
  Best Overall Response: Stable disease, %: (39.1) %
  Responders (complete or partial response, RECIST 1.1), %: (52.2) %
[1]; [6]
  BOR: Not evaluable, number of patients: 1
  BOR: Not evaluable, percentage of patients: (1.8) %
  Time to progression: Censored patients, %: (54.4) %
  Time to progression: Patients with event, %: (45.6) %
[1]; [7]
  BOR: Complete response, number of patients: 0
  BOR: Complete response, percentage of patients: (0.0) %
  BOR: Partial response, number of patients: 25
  BOR: Partial response, percentage of patients: (43.9) %
  BOR: Progressive disease, number of patients: 12
  BOR: Progressive disease, percentage of patients: (21.1) %
  BOR: Stable disease, number of patients: 19
  BOR: Stable disease, percentage of patients: (33.3) %
  ORR: Confidence Interval of responders (two-sided exact binomial 90%): 32.6-55.6
  ORR: Responders, number of patients: 25
  ORR: Responders, percentage of patients: (43.9) %
[1]; [8]
  Progression-free survival: Median time to event: 7.2 months
  Time to progression: Median time to event: 7.2 months
[1]; [9]
  Progression-free survival: Censored patients, %: (52.6) %
  Progression-free survival: Patients with event, %: (47.4) %
[1]; [10]
  Overall survival: Censored patients, %: (78.9) %
  Overall survival: Patients with event, %: (21.1) %
[1]; [11]
  Duration of response: Censored patients, %: (72.2) %
  Duration of response: Patients with event, %: (27.8) %
[1]; 900 μg/kg mitazalimab + mFOLFIRINOX, FAS, n = 18, 95% CI (1.9-3.7)
  Time to response: Median time to event: 2.2 months
[1]; 900 μg/kg mitazalimab + mFOLFIRINOX, FAS, n = 18, 95% CI (5.5; NE)
  Duration of response: Median time to event: 8.7 months
[1]; [12]
  Discontinued study: Death due to disease progression, number of patients: 1
  Discontinued study: Death due to disease progression, percentage of patients: (4.3) %
  Discontinued treatment: Clear clinical deterioration, number of patients: 1
  Discontinued treatment: Clear clinical deterioration, percentage of patients: (4.3) %
  Discontinued treatment: Death due to disease progression, number of patients: 1
  Discontinued treatment: Death due to disease progression, percentage of patients: (4.3) %
  Discontinued treatment: Progressive disease, number of patients: 2
  Discontinued treatment: Progressive disease, percentage of patients: (8.7) %
[1]; [13]
  Discontinued study: Death due to disease progression, number of patients: 1
  Discontinued study: Death due to disease progression, percentage of patients: (2.6) %
  Discontinued treatment: Clear clinical deterioration, number of patients: 1
  Discontinued treatment: Clear clinical deterioration, percentage of patients: (2.6) %
  Discontinued treatment: Death due to disease progression, number of patients: 1
  Discontinued treatment: Death due to disease progression, percentage of patients: (2.6) %
  Discontinued treatment: Progressive disease, number of patients: 3
  Discontinued treatment: Progressive disease, percentage of patients: (7.89) %
[1]; [14]
  Discontinued study: Death due to disease progression, number of patients: 15
  Discontinued study: Death due to disease progression, percentage relative to number discontinued: 83.3%
  Discontinued treatment: Death, number of patients: 1
  Discontinued treatment: Death, percentage relative to number discontinued: 3.0%
  Discontinued treatment: No longer clinically benefiting, number of patients: 3
  Discontinued treatment: No longer clinically benefiting, percentage relative to number discontinued: 9.1%
  Discontinued treatment: Progressive disease, number of patients: 19
  Discontinued treatment: Progressive disease, percentage relative to number discontinued: 57.6%
[1]; [15]
  Discontinued study: Death due to disease progression, number of patients: 3
  Discontinued study: Death due to disease progression, percentage of patients: (7.0) %
  Discontinued treatment: Clear clinical deterioration, number of patients: 1
  Discontinued treatment: Clear clinical deterioration, percentage of patients: (2.3) %
  Discontinued treatment: Death due to disease progression, number of patients: 3
  Discontinued treatment: Death due to disease progression, percentage of patients: (7.0) %
  Discontinued treatment: Progressive disease, number of patients: 5
  Discontinued treatment: Progressive disease, percentage of patients: (11.6) %
[1]; Overall, Table 42
  Discontinued treatment: Death, number of patients: 1
  Discontinued treatment: Death, percentage relative to number discontinued: 2.6%
  Discontinued treatment: No longer clinically benefiting, number of patients: 3
  Discontinued treatment: No longer clinically benefiting, percentage relative to number discontinued: 7.7%
  Discontinued treatment: Progressive disease, number of patients: 24
  Discontinued treatment: Progressive disease, percentage relative to number discontinued: 61.5%
[1]; [16]
  ORR: 52.2%
  disease control rate: 91.3%
[1]; futility analysis, 900 μg/kg mitazalimab and mFOLFIRINOX
  responders with a confirmed response via a subsequent scan: 8 out of 12
[1]; [17]
  Non-target lesion(s) response: Non-CR/non-PD
  Overall response: PD (progressive disease (PD))
  Target lesion(s) response: PD (progressive disease (PD))
[1]; [18]
  Non-target lesion(s) response: Non-CR/non-PD
  Overall response: PD (progressive disease (PD)); also recorded: SD (stable disease (SD))
  Target lesion(s) response: PD (progressive disease (PD)); also recorded: SD (stable disease (SD))
[1]; [19]
  Non-target lesion(s) response: Non-CR/non-PD
  Overall response: SD (stable disease (SD))
  Target lesion(s) response: SD (stable disease (SD))
[1]; [20]
  Non-target lesion(s) response: Non-CR/non-PD
  Overall response: SD (stable disease (SD)); also recorded: PD (progressive disease (PD))
  Target lesion(s) response: SD (stable disease (SD)); also recorded: PD (progressive disease (PD))
[1]; individual patients, 900 μg/kg mitazalimab + mFOLFIRINOX, futility analysis, responses need not be confirmed
  Best Overall Response: PD (progressive disease (PD)); also recorded: SD (stable disease (SD))
[2]; alone or in combination with FOLFIRINOX
  expression of genes involved in response to type-1 IFN and TLR signaling: high expression
[2]; vs Folfirinox
  Differentially expressed genes, p. adj < 0.05: 3953
  Differentially expressed genes, p. adj < 0.05 & FC > 2: 1717
[2]; vs Mita-Folfirinox
  Differentially expressed genes, p. adj < 0.05: 453
  Differentially expressed genes, p. adj < 0.05 & FC > 2: 221
[2]; vs untreated
  Differentially expressed genes, p. adj < 0.05: 2114
  Differentially expressed genes, p. adj < 0.05 & FC > 2: 849
